Data published in patent US20110135636A1 (SYMPHOGEN A S, published 2011).

B1: antibody 1347 (antibody, human IgG1, kappa, V domains shown)
VH: QVQLKESGPGLVAPSQSLSITCTVSGFSLTGHGVNWVRQPPGKGLEWLGMIWGDGSTDYNSTLKSRLSISKDNSKSQVFLKMNSLQTDDTARYYCARGYGYLYYFDYWGQGTTLTVSS
VL: ENVLTQSPAIMSASPGEKVTMTCRASSSVSSSYLHWYQQKSGASPKLWIYSTSNLASGVPARFSGSGSGTSYSLTVNSVETEDAATYYCHQYSGFPFTFGSGTKLELKR
notes: Chimeric IgG1 kappa
B2: antibody 1260 (antibody, human IgG1, kappa, V domains shown)
VH: QVQLKESGPGLVAPSQSLSITCTVSGFSLTTYGVHWVRQPPGKGLEWLGVIWAGGSTNYNSALMSRLSIKKDNSKSQVFLKMNSLQTDDTAMYYCARAYGYNFDYWGQGTTLTVSS
VL: DIQMTQTTSSLSASLGDRVTISCSASQGITNYLNWYQQKPDGTVKLLIYYSSSLHSGVPSRFSGSGSGTDYSLTISNLEPEDIATYYCQQYSEIPYTFGGGTKLELKR
notes: Chimeric IgG1 kappa
B3: antibody 1030 (antibody, human IgG1, kappa, V domains shown)
VH: EVQLVESGGGLVKPGGSLKLSCAASGFTFSSYALSWVRQTPERRLEWVASISGVGSTYFPDSVKGRFTMSRDNARNILYLQMSSLRSEDTAMYYCARGSDGYFYAMDYWGQGTSVTVSS
VL: DIVLTQSPASLAVSLGQRATISCRASKSVSTSGYSFMHWYQLKPGQPPKLLIYLASNLESGVPARFSGSGSGTDFTLNIHPVEEEDAATYYCQHSREFPLTFGGGTKLEIKR
notes: Chimeric IgG1 kappa
B4: antibody 1024 (antibody, human IgG1, kappa, V domains shown)
VH: QVQLQQPGAELVEPGGSVKLSCKASGYTFTSHWMHWVKQRPGQGLEWIGEINPSSGRNNYNEKFKSKATLTVDKSSSTAYMQFSSLTSEDSAVYYCVRYYGYDEAMDYWGQGTSVTVSS
VL: DIVMTQAAFSNPVTLGTSASISCRSSKSLLHSNGITYLYWYLQKPGQSPQLLIYQMSNLASGVPDRFSSSGSGTDFTLRISRVEAEDVGVYYCAQNLELPYTFGGGTKLEIKR
notes: Chimeric IgG1 kappa
B5: antibody 1208 (antibody, human IgG1, kappa, V domains shown)
VH: EVQLVESGGGLVKPGGSLKLSCAASGFAFSSYDMSWVRQTPEKRLEWVAYIGSGDDNTHYPDSVKGRFTISRHNAKNTLYLQMSSLKSEDTAMYYCARQKYGNYGDTMDYWGQGTSVTVSS
VL: DVVMTQTPLSLPVSLGDQASISCRSSQSLVHSNGNTYLHWYLQKPGQSPKLLIYKVSNRFSGVPDRFSGSGSGTDFTLKISRVEAEDLGVYFCSQSTHVPTFGGGTKLEIKR
notes: Chimeric IgG1 kappa; also called clone 1208
B6: antibody 1261 (antibody, human IgG1, kappa, V domains shown)
VH: EVQLVESGGGLVKPGGSLKLSCAVSGFTFSSYVMSWVRQTPEKRLEWVATITSGGRNIYYLDSVKGRFTISRDNAKNTLYLQMSSLRSEDTAMYYCARHEDYRYDGYYAMDYWGQGTSVTVSS
VL: QIVLTQSPAIMSASPGEKVTITCSASSSVSYMHWFQQKPGTSPKLWIYSTSNLASGVPARFSGSGSGTSYSLTISRMEAEDAATYYCQQRSSYPYTFGGGTKLELKR
notes: Chimeric IgG1 kappa
B7: antibody 992 (antibody, human IgG1, kappa, V domains shown)
VH: EVQLQQPGSELVRPGASVKLSCKASGYTFTSYWMHWVKQRPGQGLEWIGNIYPGSRSTNYDEKFKSKATLTVDTSSSTAYMQLSSLTSEDSAVYYCTRNGDYYVSSGDAMDYWGQGTSVTVSS
VL: DIQMTQTTSSLSASLGDRVTISCRTSQDIGNYLNWYQQKPDGTVKLLIYYTSRLHSGVPSRFSGSGSGTDFSLTINNVEQEDVATYFCQHYNTVPPTFGGGTKLEIKR
notes: Chimeric mouse/human IgG1 kappa; the VL entry includes the human kappa constant region

How the values were obtained:
[1] = target: T1, recombinant human EGFR extracellular domain with 6xHis (human, UniProt P00533 25-645); test: SPR, reference cycle of the run with mix N=6-1
T1 construct: In-house produced; also called 6xHis EGFR ECD; soluble human EGFR ECD; not shown: 6xHis tag
Method: SPR analysis was performed on a Biacore 3000 machine containing four flow cells. A CM5 Biacore chip was conjugated with 10,000 Resonance units (Ru) polyclonal anti-His antibody to flow cells 1-4 according to the manufacturer's instructions. […] Immediately after antigen injection the maximal binding of the Anti-EGFR mAb without competition was established in each flow cell during a reference run. Briefly 5 μl antibody at a concentration of 40 μg/ml was injected over all flow cells with captured EGFR followed by stripping of the antibody/antigen complex with a low pH acid wash (10 sec. contact time with 10 mM Glycine-HCl, pH2). After the determination of Anti-EGFR antibody maximal binding to each flow cell, a competition run was performed during the same Biacore cycle. Flow cells were first saturated with EGFR ECD antigen followed by injection of different reference antibodies or Anti-EGFR antibodies into separate flow cells using the same antigen saturating conditions as outlined above. This step was immediately followed by a second injection of Anti-EGFR antibody over the flow cell saturated with EGFR antigen and competition antibody to minimize the dissociation of either antigen or blocking antibody. Then the antibody/antigen complexes were stripped off with a low pH acid wash (10 sec. contact time with 10 mM Glycine-HCl, pH 2) and the whole cycle beginning with the reference run was repeated with a new Anti-EGFR antibody. The degree of inhibition of tested Anti-EGFR antibodies were determined by comparing the Ru max value of the individual Anti-EGFR antibody before and after competition by introduction of report points recorded two seconds before and after injection of each sample.

[2] = target: T2, wild type full length EGFR purified from A431 cells (human, UniProt P00533 25-1210); test: EGF blocking ELISA on coated full length EGFR; blocked ligand biotinylated EGF
T2 construct: mature; Bought; coated on ELISA wells; also called full length EGFR receptor antigen; Sigma E3641
Method: The next morning wells were washed twice with PBS-T and blocked for one hour with 150 μl PBS-T-1% BSA at room temperature, followed by wash twice in PBS-T. Next 80 μl of serially diluted Anti-EGFR antibodies and control antibodies were added to wells and incubated 30 min at room temperature. […] Subsequently wells were washed five times with PBS-T, followed by incubation with 100 μl/well Streptavidin-HRP secondary reagent diluted 1:1000 in blocking buffer and incubation at room temperature for 30 min. Finally wells were washed five times with PBS-T and plates were developed by adding 100 μl/well TMB substrate and incubated for 60 min. After incubation the reaction was stopped by addition of 1 M H₂SO₄; 100 μl/well and plates were read at OD 450 nm.

[3] = target: T3, full length human EGFR expressed on the cell surface (human, UniProt P00533 25-1210); test: cell ELISA, IgG titrated on paraformaldehyde-fixed A431-NS cells; given as ED50
T3 construct: whole, on cells; also called EGFR on A431-NS cells; EGFR on HN5 cells
Method: (§1) Cell ELISA: The relative binding affinities defined as the molar concentration giving the half maximal OD (ED50) were determined by antibody titrations on A431-NS cells. Briefly, 10,000 A431-NS cells were grown in 96 well ELISA plates containing DMEM with added 0.5% FCS and 1% P/S at 37° C., 5% CO₂ overnight. […] Then 50 μl of a secondary Goat-anti-Human (Fab specific) HRP conjugate diluted 1:5000 in DMEM containing 1% BSA was added and incubated on ice for 30 min. Finally wells were washed four times with PBS and plates developed by adding 50 μl/well TMB Plus substrate and read at 620 nm every 5-15-30 min. After incubation with substrate the reaction was stopped by addition of 1 M H₂SO₄ and absorbance read at 450 nm. The functional affinity expressed as ED50 values were calculated by subtraction of the average background binding with secondary reagent only, followed by normalization of the binding curves by plotting % maximal binding relative to each antibody tested.

[4] = target: T3, full length human EGFR expressed on the …; test: cell ELISA, IgG titrated on unfixed A431-NS cells after saturation with Fab 992 and Fab 1024; given as ED50
Method: (§2) Cell ELISA: The ELISA was performed essentially as described in example 15 with modifications. Cells were left unfixed to allow conformational EGFR flexibility after antibody additions. Briefly, 10,000 A431-NS cells were grown in 96 well ELISA plates containing DMEM with added 0.5% FCS and 1% P/S at 37° C., 5% CO₂ overnight. […] 25 μl DMEM containing 1% BSA was added to wells used for testing of IgG antibodies without added Fab fragments. […] Next, wells were washed four times with PBS and 50 μl of a secondary monoclonal Mouse-anti-Human (Fc specific) HRP conjugate diluted 1:5000 in DMEM containing 1% BSA was added and incubated on ice for 30 min. Finally wells were washed four times with PBS and plates developed by adding 50 μl/well TMB substrate and read at 620 nm every 5-15-30 min. After incubation with substrate the reaction was stopped by addition of 1 M H₂SO₄ and absorbance read at 450 nm. The functional affinity expressed as ED50 values were calculated by subtraction of the average background binding with secondary reagent only, followed by normalization of the binding curves by plotting % maximal binding relative to each antibody tested.
(§3) Investigations of antibody induced binding enhancements were determined by concurrent ELISA binding studies, employing same secondary antibody reagent and incubation times.

[5] = target: T3, full length human EGFR expressed on the …; test: cell ELISA, IgG titrated on paraformaldehyde-fixed A431-NS cells
Method: as §1

[6] = target: T3, full length human EGFR expressed on the …; test: cell ELISA, IgG titrated on unfixed A431-NS cells after saturation with Fab 992; given as ED50
Method: as §2, §3

[7] = target: T1, recombinant human EGFR extracellular …; test: SPR (BIAcore 2000); IgG captured on anti-human Fc, soluble EGFR ECD injected; Scatchard analysis
Method: Kinetic analysis of the full length IgG antibodies of the invention was performed on a BIAcore 2000, employing an assay as described in (Canziani, Klakamp, et al. 2004, Anal. Biochem, 325:301-307) allowing measurement of monovalent affinities of whole IgG molecules against soluble antigen. […] The chip surface was regenerated in between cycles by stripping the captured antibody/antigen complexes with a 10 second injection of 100 mM H₃PO₄. […] The association rate constant (ka) and dissociation constant (kd) were evaluated globally from the generated sensograms with the BIA evaluation software 4.1 provided by the manufacturer.

| Binder | Rumax reference cycle [1] [Ru] | EC50 [3] [nM] | Log ED50 [5] | also measured |
| --- | --- | --- | --- | --- |
| B1 | 107 | – | – | – |
| B2 | – | – | – | IC50 (read off the curve) [2]: ~50 ng mAb/ml |
| B3 | 74 | 1.5 | 0.17 | EC50 [4]: 2.2 nM; EC50 [6]: 1.6 nM |
| B4 | 122 | 0.3 | -0.49 | EC50 [6]: 0.9 nM |
| B5 | – | – | – | IC50 (read off the curve) [2]: ~20 ng mAb/ml |
| B6 | 139 | – | – | – |
| B7 | 71 | 0.3 | -0.56 | Kd [7]: 170 nM |
